From PMC4043579 (Reproduction (Cambridge, England), 2014) come the findings set out here.

For the experiment, the target named is T1, mouse gremlin-2 (GREM2; PRDC) (mouse, UniProt O88273 22-168).
T1 sequence (looked up): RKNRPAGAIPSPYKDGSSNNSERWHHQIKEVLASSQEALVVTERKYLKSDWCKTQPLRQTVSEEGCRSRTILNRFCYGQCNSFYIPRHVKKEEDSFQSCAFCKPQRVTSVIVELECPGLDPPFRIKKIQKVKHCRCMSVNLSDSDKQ
Nature of the experiment: co-IP.

B1: human anti-Müllerian hormone (AMH) (ligand, UniProt P03971 452-560, looked up)
chain: SAGATAADGPCALRELSVDLRAERSVLIPETYQANNCQGVCGWPQSDRNPRYGNHVVLLLKMQVRGAALARPPCCVPTAYAGKLLISLSEERISAHHVPNMVATECGCR
B1: the binding result was “binds”.
